± gives the uncertainty stated by the source.
B1: Double-stranded RNA-specific adenosine deaminase, residues 296 to 358; numbered along this chain, P55265 (parent)
chain: MAEIKEKICDYLFNVSDSSALNLAKNIGLTKARDINAVLIDMERQGDVYRQGTTPPIWHLTDK

Variants of: B1
Assay: abundance fitness (aPCA) (normalised: wild type 0, dead -1); higher = more abundant; growth selection in yeast, the domain comes from the species named
Settings: Homo sapiens

With MAEIKEKICDYLFNVSDSSALNLAKNIGLTKARDINAWLIDMERQGDVYRQGTTPPIWHLTDK [V38W] as the variant, how does the abundance fitness read?
The abundance fitness was -0.739 ± 0.081.

For MAEIKEKICDYLFNVSDSSALNLAKNIGLTKARDINAFLIDMERQGDVYRQGTTPPIWHLTDK [V38F], which abundance fitness is on record?
Its abundance fitness is -0.952 ± 0.21.

For MAEIKEKICDYLFNVSDSSALNLAKNIGLTKARDINACLIDMERQGDVYRQGTTPPIWHLTDK [V38C], which abundance fitness is on record?
The abundance fitness was 0.12 ± 0.085.

For MAEIKEKICDYLFNVSDSSALNLAKNIGLTKARDINAQLIDMERQGDVYRQGTTPPIWHLTDK [V38Q], which abundance fitness is on record?
Its abundance fitness is -0.276 ± 0.075.

With MAEIKEKICDYLFNVSDSSALNLAKNIGLTKARDINAELIDMERQGDVYRQGTTPPIWHLTDK [V38E] as the variant, how does the abundance fitness read?
Its abundance fitness is -0.13 ± 0.06.

With MAEIKEKICDYLFNVSDSSALNLAKNIGLTKARDINAHLIDMERQGDVYRQGTTPPIWHLTDK [V38H] as the variant, how does the abundance fitness read?
Its abundance fitness is -0.31 ± 0.11.

With MAEIKEKICDYLFNVSDSSALNLAKNIGLTKARDINAPLIDMERQGDVYRQGTTPPIWHLTDK [V38P] as the variant, how does the abundance fitness read?
The abundance fitness was -0.24 ± 0.056.

Which abundance fitness does the source give for MAEIKEKICDYLFNVSDSSALNLAKNIGLTKARDINAKLIDMERQGDVYRQGTTPPIWHLTDK [V38K] here?
Its abundance fitness is -0.387 ± 0.067.

With MAEIKEKICDYLFNVSDSSALNLAKNIGLTKARDINANLIDMERQGDVYRQGTTPPIWHLTDK [V38N] as the variant, how does the abundance fitness read?
Its abundance fitness is -0.195 ± 0.11.

Which abundance fitness does the source give for MAEIKEKICDYLFNVSDSSALNLAKNIGLTKARDINADLIDMERQGDVYRQGTTPPIWHLTDK [V38D] here?
The abundance fitness was -0.254 ± 0.17.

For MAEIKEKICDYLFNVSDSSALNLAKNIGLTKARDIYAVLIDMERQGDVYRQGTTPPIWHLTDK [N36Y], which abundance fitness is on record?
The abundance fitness was -0.232 ± 0.077.

With MAEIKEKICDYLFNVSDSSALNLAKNIGLTKARDIVAVLIDMERQGDVYRQGTTPPIWHLTDK [N36V] as the variant, how does the abundance fitness read?
The abundance fitness was -0.428 ± 0.052.

With MAEIKEKICDYLFNVSDSSALNLAKNIGLTKARDITAVLIDMERQGDVYRQGTTPPIWHLTDK [N36T] as the variant, how does the abundance fitness read?
Its abundance fitness is -0.011 ± 0.058.

With MAEIKEKICDYLFNVSDSSALNLAKNIGLTKARDIWAVLIDMERQGDVYRQGTTPPIWHLTDK [N36W] as the variant, how does the abundance fitness read?
Its abundance fitness is -0.154 ± 0.07.

With MAEIKEKICDYLFNVSDSSALNLAKNIGLTKARDINAVLGDMERQGDVYRQGTTPPIWHLTDK [I40G] as the variant, how does the abundance fitness read?
The abundance fitness was -0.265 ± 0.055.

With MAEIKEKICDYLFNVSDSSALNLAKNIGLTKARDINAVLYDMERQGDVYRQGTTPPIWHLTDK [I40Y] as the variant, how does the abundance fitness read?
Its abundance fitness is 0.043 ± 0.033.

With MAEIKEKICDYLFNVSDSSALNLAKNIGLTKARDINAVLFDMERQGDVYRQGTTPPIWHLTDK [I40F] as the variant, how does the abundance fitness read?
Its abundance fitness is -0.165 ± 0.11.

For MAEIKEKICDYLFNVSDSSALNLAKNIGLTKARDINAVLQDMERQGDVYRQGTTPPIWHLTDK [I40Q], which abundance fitness is on record?
Its abundance fitness is 0.159 ± 0.068.

Which abundance fitness does the source give for MAEIKEKICDYLFNVSDSSALNLAKNIGLTKARDINAVLVDMERQGDVYRQGTTPPIWHLTDK [I40V] here?
Its abundance fitness is -0.049 ± 0.054.

Which abundance fitness does the source give for MAEIKEKICDYLFNVSDSSALNLAKNIGLTKARDINAVLLDMERQGDVYRQGTTPPIWHLTDK [I40L] here?
Its abundance fitness is 0.128 ± 0.039.

For MAEIKEKICDYLFNVSDSSALNLAKNIGLTKARDINAVLCDMERQGDVYRQGTTPPIWHLTDK [I40C], which abundance fitness is on record?
The abundance fitness was -0.153 ± 0.077.

Which abundance fitness does the source give for MAEIKEKICDYLFNVSDSSALNLAKNIGLTKARDINAVLHDMERQGDVYRQGTTPPIWHLTDK [I40H] here?
Its abundance fitness is -0.218 ± 0.071.

With MAEIKEKICDYLFNVSDSSALNLAKNIGLTKARDINAVLTDMERQGDVYRQGTTPPIWHLTDK [I40T] as the variant, how does the abundance fitness read?
The abundance fitness was -0.065 ± 0.074.

With MAEIKEKICDYLFNVSDSSALNLAKNIGLTKARDINAVLADMERQGDVYRQGTTPPIWHLTDK [I40A] as the variant, how does the abundance fitness read?
The abundance fitness was 0.083 ± 0.056.

For MAEIKEKICDYLFNVSDSSALNLAKNIGLTKARDINAVLKDMERQGDVYRQGTTPPIWHLTDK [I40K], which abundance fitness is on record?
The abundance fitness was -0.025 ± 0.052.

For MAEIKEKICDYLFNVSDSSALNLAKNIGLTKARDINAVLMDMERQGDVYRQGTTPPIWHLTDK [I40M], which abundance fitness is on record?
Its abundance fitness is 0.122 ± 0.058.

For MAEIKEKICDYLFNVSDSSALNLAKNIGLTKARDINAVLRDMERQGDVYRQGTTPPIWHLTDK [I40R], which abundance fitness is on record?
Its abundance fitness is -0.054 ± 0.048.

Which abundance fitness does the source give for MAEIKEKICDYLFNVSDSSALNLAKNIGLTKARDINAVLWDMERQGDVYRQGTTPPIWHLTDK [I40W] here?
Its abundance fitness is -0.388 ± 0.066.

For MAEIKEKICDYLFNVSDSSALNLAKNIGLTKARDINAVLSDMERQGDVYRQGTTPPIWHLTDK [I40S], which abundance fitness is on record?
Its abundance fitness is 0.117 ± 0.041.

With MAEIKEKICDYLFNVSDSSALNLAKNIGLTKARDINAVLPDMERQGDVYRQGTTPPIWHLTDK [I40P] as the variant, how does the abundance fitness read?
The abundance fitness was -0.387 ± 0.07.

Which abundance fitness does the source give for MAEIKEKICDYLFNVSDSSALNLAKNIGLTKARDINAVLDDMERQGDVYRQGTTPPIWHLTDK [I40D] here?
Its abundance fitness is -0.093 ± 0.062.

For MAEIKEKICDYLFNVSDSSALNLAKNIGLTKARDINAVLNDMERQGDVYRQGTTPPIWHLTDK [I40N], which abundance fitness is on record?
Its abundance fitness is 0.075 ± 0.052.

Which abundance fitness does the source give for MAEIKEKICDYLFNVSDSSALNLAKNIGLTKARDINAVLIPMERQGDVYRQGTTPPIWHLTDK [D41P] here?
Its abundance fitness is -0.421 ± 0.076.

Which abundance fitness does the source give for MAEIKEKICDYLFNVSDSSALNLAKNIGLTKARDINAVLIFMERQGDVYRQGTTPPIWHLTDK [D41F] here?
The abundance fitness was -1.34 ± 0.31.

With MAEIKEKICDYLFNVSDSSALNLAKNIGLTKARDINAVLIMMERQGDVYRQGTTPPIWHLTDK [D41M] as the variant, how does the abundance fitness read?
Its abundance fitness is -0.539 ± 0.15.

With MAEIKEKICDYLFNVSDSSALNLAKNIGLTKARDINAVLIRMERQGDVYRQGTTPPIWHLTDK [D41R] as the variant, how does the abundance fitness read?
Its abundance fitness is -0.73 ± 0.065.

With MAEIKEKICDYLFNVSDSSALNLAKNIGLTKARDINAVLICMERQGDVYRQGTTPPIWHLTDK [D41C] as the variant, how does the abundance fitness read?
Its abundance fitness is -0.822 ± 0.15.

For MAEIKEKICDYLFNVSDSSALNLAKNIGLTKARDINAVLIGMERQGDVYRQGTTPPIWHLTDK [D41G], which abundance fitness is on record?
The abundance fitness was -0.348 ± 0.068.

For MAEIKEKICDYLFNVSDSSALNLAKNIGLTKARDINAVLINMERQGDVYRQGTTPPIWHLTDK [D41N], which abundance fitness is on record?
Its abundance fitness is -0.514 ± 0.12.

With MAEIKEKICDYLFNVSDSSALNLAKNIGLTKARDINAVLILMERQGDVYRQGTTPPIWHLTDK [D41L] as the variant, how does the abundance fitness read?
Its abundance fitness is -0.99 ± 0.11.

With MAEIKEKICDYLFNVSDSSALNLAKNIGLTKARDINAVLIAMERQGDVYRQGTTPPIWHLTDK [D41A] as the variant, how does the abundance fitness read?
Its abundance fitness is -0.315 ± 0.062.

With MAEIKEKICDYLFNVSDSSALNLAKNIGLTKARDINAVLIHMERQGDVYRQGTTPPIWHLTDK [D41H] as the variant, how does the abundance fitness read?
Its abundance fitness is -0.754 ± 0.15.

With MAEIKEKICDYLFNVSDSSALNLAKNIGLTKARDINAVLIEMERQGDVYRQGTTPPIWHLTDK [D41E] as the variant, how does the abundance fitness read?
Its abundance fitness is 0.223 ± 0.13.

Source: the Human Domainome abundance scans (Beltran et al. 2025)
